Measurements as given in patent publication EP1763578B1, “TANNASE” (priority 2004, dated 2006).

Assays:
[1] = tested on: Arxula adeninivorans LS3 Tannase I (Atan1p), SEQ ID NO: 3; assay: Tannase assay with rhodanine, KM determination with tannin; format: biochemical; details: tannin solution 0,05-0,75 mg/ml, 15 min at 30°C; Lineweaver-Burk plot; read-out: KM-Wert (Tannin)
Description: (§1) Der Nachweis der Tannase mit Hilfe des Rhodanins, wurde nach einer Methode von Sharma et al. (Sharma S, Bhat TK, Dawra RK (2000) A spectrophotometric method for assay of tannase using Rhodanine. Anal. Biochem. 279: 85-89, 2000) durchgeführt.
(§2) Als Test-Kontrolle wurden 450 µl Puffer und 50 µl eingeengter Kulturüberstand zusammenpipettiert. Als Blank-Kontrolle wurden 250 µl der Substratlösung und 250 µl Puffer zusammengegeben. Diese drei verschiedenen Ansätze wurden anschließend für 5 Min bei 30°C inkubiert. […] Nach anschließender Inkubation für 5 Min bei 30°C wurden weitere 200 µl 0,5 M KOH zugegeben. Nach wiederholter Inkubation bei 30°C für 5 Min wird die Absorbtion der verschiedenen Ansätze bei 520 nm im Spektrophotometer (UV160-A/Shimadzu) gegen Wasser gemessen. Die Absorption kann nach folgender Formel berechnet werden: ΔA520nm = (ATest-ABlank)-(AKontrolle-ABlank) [formula]
(§3) Mit Hilfe einer Eichkurve wurde dann die entstandene Gallatmenge ermittelt. Einheiten/Enzym = ((μmol gebildetes Gallat/min)*(Vf))/((0, 05)) [formula] Vf = Verdünnungsfaktor 0,05 = eingesetztes Probevolumen (in Milliliter) Eine Einheit ist definiert als µmol gebildetes Gallat pro Minute.
Zur Bestimmung des KM-Wertes wurde zu je 50 µl Tannase 250 µl Tanninlösung in Konzentrationen von 0,05 mg/ml bis 0,75 mg/ml zugegeben, alles 15 Min bei 30°C inkubiert und die Tannaseaktivität wie beschrieben ermittelt. […]

[2] = target: T1, Arxula adeninivorans LS3 Tannase II (Atan2p), SEQ ID NO: 4 (Blastobotrys adeninivorans, UniProt Q5GMI6); assay: as above; format: biochemical; details: tannin solution 0,05-0,75 mg/ml, 15 min at 30°C; Lineweaver-Burk plot; read-out: KM-Wert (Tannin)
T1 sequence (Q5GMI6 29-448): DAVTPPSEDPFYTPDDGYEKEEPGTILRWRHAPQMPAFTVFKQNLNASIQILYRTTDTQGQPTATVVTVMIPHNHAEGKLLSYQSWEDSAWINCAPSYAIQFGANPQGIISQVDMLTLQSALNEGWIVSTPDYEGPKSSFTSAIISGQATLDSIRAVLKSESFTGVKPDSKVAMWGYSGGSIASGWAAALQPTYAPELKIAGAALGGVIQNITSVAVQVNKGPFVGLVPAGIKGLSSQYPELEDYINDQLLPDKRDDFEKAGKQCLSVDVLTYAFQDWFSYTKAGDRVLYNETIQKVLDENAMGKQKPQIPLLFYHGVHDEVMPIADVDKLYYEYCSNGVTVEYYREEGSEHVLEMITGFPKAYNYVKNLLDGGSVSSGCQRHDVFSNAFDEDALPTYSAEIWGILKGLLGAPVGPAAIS
Description: as §1, §2, §3
Zur Bestimmung des KM-Wertes wurde zu je 50µl Tannase-Probe 250µl Tanninlösung in Konzentrationen von 0,05 mg/ml bis 0,75 mg/ml zugegeben, alles 15 Min bei 30°C inkubiert und die Tannaseaktivität gemessen. […]

[3] = substrate: CCCCCCCCCC(=O)Oc1ccc([N+](=O)[O-])cc1; assay: Lipase assay with p-nitrophenyl ester, native enzyme; format: biochemical, Arxula adeninivorans LS3; details: other: native lipase; pH 7.5; 30.0 °C
Description: (§4) Für diese Bestimmung wurde eine frische Stammlösung (3mM […] in 10 ml Propanol durch 10 Min vortexen lösen) angesetzt. Für den Messansatz wurden 850 µl 0,05 M Na-Phosphat-Puffer pH 7,5 und 100 µl der Stammlösung gemischt und anschließend 50 µl Probelösung zugegeben. Als Kontrolle wurden 900 µl Puffer und 100 µl Stammlösung zusammengegeben. Beide Ansätze wurden für 5-10 Min bei 30°C inkubiert und anschließend 1 ml Aceton zum Abstoppen der Reaktion zugegeben. Danach wurde die Absorption bei 410 nm im Spektrometer (UV160-A/Shimadzu) gegen Wasser gemessen: Die Enzymaktivität kann dann nach folgender Formel berechnet werden: Einheiten/ml Enzym = ((ΔA410nm/min Test-ΔA410nm/min Blank)*(Vf))/((14, 800)*(0, 05)) [formula] Vf = Verdünnungsfaktor 14800 I mol^-1 cm^-1= Extinktionskoeffizient von p-Nitrophenol bei 410nm (Quinn et al. 1982) 0,05 = eingesetztes Probevolumen (in Milliliter) Eine Einheit ist definiert als µmol gebildetes p-Nitrophenol pro Minute.
(§5) Da Atan2p eine sehr hohe Homologie zu Lipasen aufweist, wurde A. adeninivorans G1211/pAL-ALEU2m-ATAN2 parallel auf sekretorische Lipase-Aktivität mit p-Nitrophenyl-Caprate geprüft. Dazu erfolgte eine Anzucht in HMM + 2% Glukose bzw. HMM + 2% Xylitol, Bedingungen unter denen das native ATAN2-Gen nicht exprimiert wird, d. h. auch kein natives sekretorisches Atan2p auftritt. […]

[4] = substrate: CCCCCCCCCC(=O)Oc1ccc([N+](=O)[O-])cc1; assay: Lipase assay with p-nitrophenyl ester, recombinant enzyme; format: biochemical, Arxula adeninivorans; details: other: recombinant lipase; pH 7.5; 30.0 °C
Description: as §4, §5

Tannin
Km [1]: 150 µM | Km [2]: 1100 µM

B1: Tannase II (Atan2p nativ, native Lipase) secreted by A. adeninivorans LS3, SEQ ID NO: 4 (Blastobotrys adeninivorans) (protein)
chain: DAVTPPSEDPFYTPDDGYEKEEPGTILRWRHAPQMPAFTVFKQNLNASIQILYRTTDTQGQPTATVVTVMIPHNHAEGKLLSYQSWEDSAWINCAPSYAIQFGANPQGIISQVDMLTLQSALNEGWIVSTPDYEGPKSSFTSAIISGQATLDSIRAVLKSESFTGVKPDSKVAMWGYSGGSIASGWAAALQPTYAPELKIAGAALGGVIQNITSVAVQVNKGPFVGLVPAGIKGLSSQYPELEDYINDQLLPDKRDDFEKAGKQCLSVDVLTYAFQDWFSYTKAGDRVLYNETIQKVLDENAMGKQKPQIPLLFYHGVHDEVMPIADVDKLYYEYCSNGVTVEYYREEGSEHVLEMITGFPKAYNYVKNLLDGGSVSSGCQRHDVFSNAFDEDALPTYSAEIWGILKGLLGAPVGPAAIS
Km [3]: 400 µM | Vmax [3]: 0,043 µmol x min^-1

B2: Tannase II (Atan2p rekombinant, rekombinante Lipase) secreted by A. adeninivorans G1211/pAL-ALEU2m-ATAN2, SEQ ID NO: 4 (Blastobotrys adeninivorans) (protein)
chain: DAVTPPSEDPFYTPDDGYEKEEPGTILRWRHAPQMPAFTVFKQNLNASIQILYRTTDTQGQPTATVVTVMIPHNHAEGKLLSYQSWEDSAWINCAPSYAIQFGANPQGIISQVDMLTLQSALNEGWIVSTPDYEGPKSSFTSAIISGQATLDSIRAVLKSESFTGVKPDSKVAMWGYSGGSIASGWAAALQPTYAPELKIAGAALGGVIQNITSVAVQVNKGPFVGLVPAGIKGLSSQYPELEDYINDQLLPDKRDDFEKAGKQCLSVDVLTYAFQDWFSYTKAGDRVLYNETIQKVLDENAMGKQKPQIPLLFYHGVHDEVMPIADVDKLYYEYCSNGVTVEYYREEGSEHVLEMITGFPKAYNYVKNLLDGGSVSSGCQRHDVFSNAFDEDALPTYSAEIWGILKGLLGAPVGPAAIS
Km [4]: 710 µM | Vmax [4]: 0,036 µmol x min^-1
